What was measured:
[1] = target: ptau 187-212 (pS202, pT205 by the sequence printed in Table 22) (human); assay: Ala-scan peptide ELISA, 1 ug/mL
[2] = target: ptau 187-212 (pY197, pT205 by the sequence printed in Table 11) (human); assay: peptide ELISA, 2 ug/mL

Sequence of CBTAU-7.1 (antibody) (VH): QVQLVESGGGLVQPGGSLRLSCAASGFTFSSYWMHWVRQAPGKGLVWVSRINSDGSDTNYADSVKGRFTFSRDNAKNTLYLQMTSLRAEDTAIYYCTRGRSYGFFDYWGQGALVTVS
Sequence of CBTAU-7.1 (antibody) (VL): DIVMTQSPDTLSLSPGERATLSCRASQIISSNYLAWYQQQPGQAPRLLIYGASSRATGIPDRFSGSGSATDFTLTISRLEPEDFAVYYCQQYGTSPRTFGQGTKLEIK

CBTAU-7.1 (antibody)
OD450 [1]: > 1.5 od | OD450 [2]: 0.5 to 1 od

From patent US20170210787A1
